The values below come from PMC2669960 (The EMBO Journal, 2009).

Like-named read-outs stand apart in the source and are kept apart here.

To fix the notation:
B3: His–Ska3 (N), tag cleaved (domain or fragment)
chain: MDPIRSFCGKLRSLASTLDCETARLQRALDGEESDFEDYPMRILYDLHSEVQTLKDDVNILLDKARLENQEGIDFIKATKVLMEKNSMDIMKIREYFQKYGYSPRVKKNSVHEQEAINSDPELSNCENFQKTDVKDDLSDPPVASSCISEKSPRSP
B4: His–Ska1 (N), tag cleaved (domain or fragment)
chain: MASSDLEQLCSHVNEKIGNIKKTLSLRNCGQEPTLKTVLNKIGDEIIVINELLNKLELEIQYQEQTNNSLKELCESLEEDYKDIEHLKENVPSHLPQVTVTQSCVKGSDLDPEEPIKVEEPEPVKKPPKE

Common to all, as to experiment: co-purification
Test [1] has as its target T1, GST–Ska1 (full length), tag cleaved (human, UniProt Q96BD8 1-255).
T1 sequence: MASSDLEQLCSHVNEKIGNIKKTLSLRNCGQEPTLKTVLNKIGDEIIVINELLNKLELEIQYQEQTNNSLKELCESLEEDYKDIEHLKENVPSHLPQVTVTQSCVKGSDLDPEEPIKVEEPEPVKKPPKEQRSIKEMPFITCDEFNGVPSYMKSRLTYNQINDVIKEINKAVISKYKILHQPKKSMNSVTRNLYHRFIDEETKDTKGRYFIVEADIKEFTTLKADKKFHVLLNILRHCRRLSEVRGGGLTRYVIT

The target of test [2] is B3.
The target in test [3] is B4.
Test [4] deals with T2, His–Ska1 (full length), tag cleaved (human, UniProt Q96BD8 1-255).
T2 sequence: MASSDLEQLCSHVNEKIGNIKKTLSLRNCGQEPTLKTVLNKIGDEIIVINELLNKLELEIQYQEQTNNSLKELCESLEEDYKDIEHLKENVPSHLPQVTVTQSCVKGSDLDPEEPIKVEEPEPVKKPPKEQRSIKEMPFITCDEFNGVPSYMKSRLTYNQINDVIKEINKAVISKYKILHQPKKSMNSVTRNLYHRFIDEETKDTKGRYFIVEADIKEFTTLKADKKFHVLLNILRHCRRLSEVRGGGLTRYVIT

Test [5] addresses T2, His–Ska1 (full length), tag cleaved. This is another data set of the same source.
Test [6] deals with T1, GST–Ska1 (full length), tag cleaved. This is another data set of the same source.
In test [7] the target is B3. The source holds these as a separate data set.

B1: untagged Ska2 (natural protein)
chain: MEAEVDKLELMFQKAESDLDYIQYRLEYEIKTNHPDSASEKNPVTLLKELSVIKSRYQTLYARFKPVAVEQKESKSRICATVKKTMNMIQKLQKQTDLELSPLTKEEKTAAEQFKFHMPDL
For B1, in test [1], the binding result was “binds”.

B2: GST–Ska2 (full length), tag cleaved (natural protein)
chain: MEAEVDKLELMFQKAESDLDYIQYRLEYEIKTNHPDSASEKNPVTLLKELSVIKSRYQTLYARFKPVAVEQKESKSRICATVKKTMNMIQKLQKQTDLELSPLTKEEKTAAEQFKFHMPDL
Turning to B2, the binding result in test [2], in test [3] and in test [4] was “binds” each time.

In the case of B3, the binding result in test [5] and in test [6] was “binds” throughout.

Consider B4, for which the binding result in test [7] was “binds”.
